Laboratory results reported in patent US6713276.

Biological target: APP751sw (751 form of APP carrying the Swedish mutation), P05067
Sequence (P05067 whole entry, looked up, change not shown): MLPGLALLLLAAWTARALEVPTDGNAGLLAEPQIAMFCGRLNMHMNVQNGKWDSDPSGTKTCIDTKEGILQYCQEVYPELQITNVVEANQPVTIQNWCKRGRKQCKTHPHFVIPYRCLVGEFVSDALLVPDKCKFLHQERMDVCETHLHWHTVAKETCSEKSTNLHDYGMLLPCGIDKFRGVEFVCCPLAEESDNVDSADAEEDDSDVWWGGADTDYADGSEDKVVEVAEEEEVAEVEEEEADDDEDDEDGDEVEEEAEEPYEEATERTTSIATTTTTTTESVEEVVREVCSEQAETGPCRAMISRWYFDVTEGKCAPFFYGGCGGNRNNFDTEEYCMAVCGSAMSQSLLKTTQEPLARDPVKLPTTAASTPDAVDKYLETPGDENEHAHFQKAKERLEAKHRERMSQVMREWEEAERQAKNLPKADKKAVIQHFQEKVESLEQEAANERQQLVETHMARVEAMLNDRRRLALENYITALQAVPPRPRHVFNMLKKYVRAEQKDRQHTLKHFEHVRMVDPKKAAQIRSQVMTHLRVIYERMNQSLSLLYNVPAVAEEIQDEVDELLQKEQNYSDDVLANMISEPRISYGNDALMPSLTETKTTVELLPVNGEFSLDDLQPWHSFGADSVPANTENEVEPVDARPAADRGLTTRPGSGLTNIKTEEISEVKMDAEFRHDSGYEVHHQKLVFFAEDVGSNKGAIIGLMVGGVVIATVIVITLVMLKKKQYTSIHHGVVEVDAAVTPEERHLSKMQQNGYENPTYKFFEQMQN

B1: BACE2 D110A (protein)
chain: ALEPALASPAGAANFLAMVDNLQGDSGRGYYLEMLIGTPPQKLQILVATGSSNFAVAGTPHSYIDTYFDTERSSTYRSKGFDVTVKYTQGSWTGFVGEDLVTIPKGFNTSFLVNIATIFESENFFLPGIKWNGILGLAYATLAKPSSSLETFFDSLVTQANIPNVFSMQMCGAGLPVAGSGTNGGSLVLGGIEPSLYKGDIWYTPIKEEWYYQIEILKLEIGGQSLNLDCREYNADKAIVDSGTTLLRLPQKVFDAVVEAVARASLIPEFSDGFWTGSQLACWTNSETPWSYFPKISIYLRDENSSRSFRITILPQLYIQPMMGAGLNYECYRFGISPSTNALVIGATVMEGFYVIFDRAQKRVGFAASPCAEIAGAAVSEISGPFSTEDVASNCVPAQSLSEPILWIVSYALMSVCGAILLVLIVLLLLPFRCQRRPRDPEVVNDESSLVRHRWK
β-NTF formation, Q-HP Sepharose fractions of membrane extracts reconstituted with APP751sw for 2 hours at 37° C.: extracts derived from BACE2 D110A transfected cells lost their ability to cleave at the β-secretase site in vitro
